Reference: the supplement of paper PMC7877785
± gives the uncertainty stated by the source.

Experiment: self-splicing fitness, log relative to wild type (ln ratio); higher = more splicing; Tetrahymena group I intron in knt gene, E. coli kanamycin selection, DiMSum; sequences stand for … in CUCUCU…GGAGGGAAAAGUUAUCAGGCAUGCACCUGGUAGCUAGUCUUUAAACCAAUAGAUUGCAUCGGUUUAAAAGGCAAGACCGUCAAAUUGCGGGAAAGGGGUCAACAGCCGUUCAGUACCAAGUCUCAGGGGAAACUUUGAGAUGGCCUUGCAAAGGGUAUGGUAAUAAGCUGACGGACAUGGUCCUAACCACGCAGCCAAGUCCUAAGUCAACAGAUCUUCUGUUGAUAUGGAUGCAGUUCACAGACUAAAUGUCGGUCGGGGAAGAUGUAUUCUUCUCAUAAGAUAUAGUCGGACCUCUCCUUAAUGGGAGCUAGCGGAUGAAGUGAUGCAACACUGGAGCCGCUGGGAACUAAUUUGUAUGCGAAAGUAUAUUGAUUAGUUUUGGAGUACUCGUGGUCG
Procedure, shortened: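 Pooled colonies went to amplicon sequencing on an Illumina HiSeq 2500 after six replicate transformations. The plates were LB agar with 100 μg/mL carbenicillin, 50 μM IPTG and 0.2% rhamnose, with or without 25 μg/mL kanamycin, incubated overnight at 37°C or 30°C. The E. coli BL21(DE3) library had all eight P1ex-region intron nucleotides randomised, the intron placed in the knt kanamycin-resistance gene on pET-22b(+). DiMSum fitness is the error-weighted combination of replicate fold changes, kanamycin against none, normalised to wild type.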

Sequence	self-splicing fitness (ln) (30 °C)	self-splicing fitness (ln) (37 °C)
AUGGAGCAAUAUUACGGCGC	-2.45 ± 0.34	-0.677 ± 0.41
CGUUAGCAAUAUUACGAGCC	-2.52 ± 0.21	0.132 ± 0.17
CUGGAGCAAUAUUACGGGAG	-3.19 ± 0.28	-0.913 ± 0.19
GCUGAGCAAUAUUACGAUAC	-1.15 ± 0.35	0.491 ± 0.22
CAGAAGCAAUAUUACGUGUG	-3.01 ± 0.074	-2.19 ± 0.082
UGGCAGCAAUAUUACGUAUG	-0.256 ± 0.068	-0.15 ± 0.092
GUCGAGCAAUAUUACGUUAA		-2.06 ± 0.47
CCGGAGCAAUAUUACGCGCC	-1.89 ± 0.32	
UUUAAGCAAUAUUACGCAUU	-2.05 ± 0.17	-2.63 ± 0.24
AGGCAGCAAUAUUACGUCUG	-2.66 ± 0.15	-1.51 ± 0.15
CGAGAGCAAUAUUACGGAAU	-3.06 ± 0.19	-3.23 ± 0.42
UUUGAGCAAUAUUACGUAUC	-4 ± 0.29	-2.45 ± 0.23
GGUCAGCAAUAUUACGCGUA	-0.325 ± 0.067	-0.158 ± 0.07
GUUUAGCAAUAUUACGGGGU	-3.3 ± 0.35	-2.29 ± 0.2
CUGGAGCAAUAUUACGGGCA	-1.06 ± 0.38	
AUGGAGCAAUAUUACGCUCU	-3.56 ± 0.49	-1.45 ± 0.41
CUGCAGCAAUAUUACGUUUG	-2.61 ± 0.094	-0.958 ± 0.098
UCCGAGCAAUAUUACGGGCU	-4.07 ± 0.24	-2.97 ± 0.2
CGAUAGCAAUAUUACGAUAU	-3.53 ± 0.16	-1.47 ± 0.12
ACGCAGCAAUAUUACGGAAC	-3.67 ± 0.2	-1.78 ± 0.17

Sequence	self-splicing fitness (ln) (30 °C)	self-splicing fitness (ln) (37 °C)
CCCUAGCAAUAUUACGGGAU	-3.82 ± 0.21	-3.12 ± 0.26
UACCAGCAAUAUUACGUAGC	-2.38 ± 0.11	-1.72 ± 0.14
GUAAAGCAAUAUUACGUGGC	-3.42 ± 0.18	-2.48 ± 0.2
AAGAAGCAAUAUUACGGUCG	-0.736 ± 0.073	-0.121 ± 0.1
GUAGAGCAAUAUUACGGUCA	-1.47 ± 0.098	-0.0887 ± 0.12
CUAAAGCAAUAUUACGUCGC	-3.42 ± 0.15	-2.63 ± 0.23
AAUGAGCAAUAUUACGUCCU	-1.45 ± 0.13	-0.218 ± 0.12
UACAAGCAAUAUUACGCUUC	-4.25 ± 0.42	-3.02 ± 0.25
UAAGAGCAAUAUUACGACCG	-2.9 ± 0.35	-2.21 ± 0.25
GUUUAGCAAUAUUACGAGUC		-0.725 ± 0.21
UACCAGCAAUAUUACGUCGG	-2.64 ± 0.12	-1.91 ± 0.14
AGUCAGCAAUAUUACGGAUC	-0.312 ± 0.11	-0.438 ± 0.2
CGAAAGCAAUAUUACGGGCC	-3.07 ± 0.23	-3.07 ± 0.21
AGAUAGCAAUAUUACGAUCC	-1.68 ± 0.38	-0.656 ± 0.39
GCGUAGCAAUAUUACGAGGC		-1.53 ± 0.39
GCCAAGCAAUAUUACGCGGC	-3.04 ± 0.22	-3.03 ± 0.43
UGUAAGCAAUAUUACGCCUA	-0.337 ± 0.14	0.331 ± 0.15
GAGGAGCAAUAUUACGACUA	-1.32 ± 0.43	-1.47 ± 0.37
GGAAAGCAAUAUUACGGUGA	-1.01 ± 0.15	-0.6 ± 0.16
CGACAGCAAUAUUACGCUGC	-3.02 ± 0.25	-2.24 ± 0.26
